Source: patent US8461322B2, “Plant 1-deoxy-D-xylulose 5-phosphate reductoisomerase” (E I du Pont de Nemours and Company, priority 1998, dated 2013)

B1: truncated rice His-DXR (SEQ ID NO:30): rice DXR protein in which the first fifty-one amino acids have been removed and replaced with a twenty amino acid His-tag (protein)
chain: MGSSHHHHHHSSGLVPRGSHMQQAPPPAWPGRAVVEPGRRSWDGPKPISIVGSTGSIGTQTLDIVAENPDKFRVVALAAGSNVTLLADQVKTFKPKLVAVRNESLVDELKEALADCDWKPEIIPGEQGVIEVARHPDAVTVVTGIVGCAGLKPTVAAIEAGKDIALANKETLIAGGPFVLPLAQKHKVKILPADSEHSAIFQCIQGLPEGALRRIILTASGGAFRDWPVDKLKEVKVADALKHPNWNMGKKITVDSATLFNKGLEVIEAHYLFGAEYDDIEIVIHPQSIIHSMIETQDSSVLAQLGWPDMRIPTLYTMSWPDRIYCSEVTWPRLDLCKLGSLTFKAPDNVKYPSMDLAYAAGRAGGTMTGVLSAANEKAVELFIDEKIGYLDIFKVVELTCDAHRNELVTRPSLEEIIHYDLWAREYAASLQPSTGLSPVPV
modifications: His-tag; His-tagged truncated rice 1-deoxy-D-xylulose 5-phosphate reductoisomerase
B2: Synechocystis His-DXR: His-tagged Synechocystis 1-deoxy-D-xylulose 5-phosphate reductoisomerase (protein)
chain: MGSSHHHHHHSSGLVPRGSHMVKRISILGSTGSIGTQTLDIVTHHPDAFQVVGLAAGGNVALLAQQVAEFRPEIVAIRQAEKLEDLKAAVAELTDYQPMYVVGEEGVVEVARYGDAESVVTGIVGCAGLLPTMAAIAAGKDIALANKETLIAGAPVVLPLVEKMGVKLLPADSEHSAIFQCLQGVPEGGLRRIILTASGGAFRDLPVERLPFVTVQDALKHPNWSMGQKITIDSATLMNKGLEVIEAHYLFGLDYDHIDIVIHPQSIIHSLIEVQDTSVLAQLGWPDMRLPLLYALSWPERIYTDWEPLDLVKAGSLSFREPDHDKYPCMQLAYGAGRAGGAMPAVLNAANEQAVALFLQEKISFLDIPRLIEKTCDLYVGQNTASPDLETILAADQWARRTVLENSACVATRP
modifications: His-tag; His-tagged Synechocystis 1-deoxy-D-xylulose 5-phosphate reductoisomerase
B3: E. coli His-DXR: His-tagged E. coli 1-deoxy-D-xylulose 5-phosphate reductoisomerase (protein)
chain: MGSSHHHHHHSSGLVPRGSHMKQLTILGSTGSIGCSTLDVVRHNPEHFRVVALVAGKNVTRMVEQCLEFSPRYAVMDDEASAKLLKTMLQQQGSRTEVLSGQQAACDMAALEDVDQVMAAIVGAAGLLPTLAAIRAGKTILLANKESLVTCGRLFMDAVKQSKAQLLPVDSEHNAIFQSLPQPIQHNLGYADLEQNGVVSILLTGSGGPFRETPLRDLATMTPDQACRHPNWSMGRKISVDSATMMNKGLEYIEARWLFNASASQMEVLIHPQSVIHSMVRYQDGSVLAQLGEPDMRTPIAHTMAWPNRVNSGVKPLDFCKLSALTFAAPDYDRYPCLKLAMEAFEQGQAATTALNAANEITVAAFLAQQIRFTDIAALNLSVLEKMDMREPQCVDDVLSVDASAREVARKEVMRLAS
modifications: His tag; His-tagged E. coli 1-deoxy-D-xylulose 5-phosphate reductoisomerase
B4: second truncated rice His-DXR (SEQ ID NO:31): rice DXR protein in which the first seventy-six amino acids have been removed and replaced with a twenty-one amino acid His-tag (protein)
chain: MGSSHHHHHHSSGLVPRGSHMKPISIVGSTGSIGTQTLDIVAENPDKFRVVALAAGSNVTLLADQVKTFKPKLVAVRNESLVDELKEALADCDWKPEIIPGEQGVIEVARHPDAVTVVTGIVGCAGLKPTVAAIEAGKDIALANKETLIAGGPFVLPLAQKHKVKILPADSEHSAIFQCIQGLPEGALRRIILTASGGAFRDWPVDKLKEVKVADALKHPNWNMGKKITVDSATLFNKGLEVIEAHYLFGAEYDDIEIVIHPQSIIHSMIETQDSSVLAQLGWPDMRIPTLYTMSWPDRIYCSEVTWPRLDLCKLGSLTFKAPDNVKYPSMDLAYAAGRAGGTMTGVLSAANEKAVELFIDEKIGYLDIFKVVELTCDAHRNELVTRPSLEEIIHYDLWAREYAASLQPSTGLSPVPV
modifications: His-tag; His-tagged truncated rice 1-deoxy-D-xylulose 5-phosphate reductoisomerase

test: Recombinant DXR activity, non-radioactive kinetic assay (oxidation of NADPH monitored at 340 nm); format: biochemical; conditions: Ni-Agarose purified His-tagged protein expressed in E. coli, 100 mM Hepes pH 7.5, 1 mM MnCl2, NADPH, 0.3 mM DXP, room temperature
Procedure: Recombinant His-tagged DXR proteins were purified from E. coli using Ni-Agarose. Recombinant DXR activity was measured using a non-radioactive kinetic assay (Kuzuyama et al. (1998) Tetrahedron Lett 39:7913-7916). The assay mixture contained the following: 100 mM Hepes (pH 7.5); 1 mM MnCl2; […] NADPH, DXR, and 0.3 mM 1-deoxy-D-xylulose […] (DXP). The final volume of the reaction mixture was 200 μl and the assay was initiated by adding the substrate. The assay was run at room temperature on a plate reader. The oxidation of NADPH was monitored at 340 nm. The DXR activity was determined from the slope of the kinetic curve.

Molecule	DXR activity (oxidation of NADPH)
B1	no oxidation of NADPH was detected
B2	DXR activity was detected
B3	DXR activity was detected
B4	no oxidation of NADPH was detected
